In a protein production outcome set (Wang et al. 2014):
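Further: failed if final PepcDB status was selected cloned or expressed and not failed if soluble or beyond.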

Assay: label from the status in PepcDB records
In the case of “MKALIFAAAGLLLLLPTFCQSGMENDTNNLAKPTLPIKTFRGAPPNSFEEFPFSALEGWTGATITVKIKCPEESASHLHVKNATMGYLTSSLSTKLIPAIYLLVFVVGVPANAVTLWMLFFRTRSICTTVFYTNLAIADFLFCVTLPFKIAYHLNGNNWVFGEVLCRATTVIFYGNMYCSILLLACISINRYLAIVHPFTYRGLPKHTYALVTCGLVWATVFLYMLPFFILKQEYYLVQPDITTCHDVHNTCESSSPFQLYYFISLAFFGFLIPFVLIIYCYAAIIRTLNAYDHRWLWYVKASLLILVIFTICFAPSNIILIIHHANYYYNNTDGLYFIYLIALCLGSLNSCLDPFLYFLMSKTRNHSTAYLTK”, the protein production was “failed”.
With “MKALIFAAGFGERMRPLTEHTPKPLLSVGGTPLIVWHLRKLAALGVDEVVINTSWLAEQFPQVLGDGSAFGLRLTYSYEGATPLETGGGMLHALPLLGDAPFLLVNGDIWTDFDFARLSHAPDGLAQLVLVDQPSYATRADFALDADGNVRADLPASLTYSGIGMYRPALLRDWQSVIGQLPEQPCTAPRFALAPILRAQMTARLINGIHHSGRWTDVGTPQRLAELDAQLLRDGS” the protein production was “failed”.
For “MKALNDSYDVVVVGAGPAGSMASYNASKNGAKTLLIEKSQEIGTPVRCAEAVPRLEDFGINPDPSFVKSYIRGGYLIAPNGKKIVVKGGKTDGYVVERKVFDKFLAIRSGQAGTQIAVKSRVTKIEKTDDGYNVFVNYLGDEYIVKSKIVIAADGVESNIAEYAGLKSKKNPKEICSCAEYEMTNVKLLNNEMMEFYFGDICPKGYIWLFPKGDTVNVGIGVIDSKKRAIDYLDEFLTHPLVEGRLDNAVPVEFKVGGDPVGGPIKKTVADNIMVVGDAAGHVSPLTGGGIGLSMDCGLMAGDVAAQSIKAENYSEEFLDLYEKKWKEKYYKLLMNDLKYKNILQKLSDDELNAIANSIPENLEEVDVGKLAIKIVAKAPSLLRHFKELL”, the protein production was “failed”.
In the case of “MKALTVNKTIFILVIAASLLLGAAVGYIAHSLTAGGGGVVVTGSKAVSTGTSIGVYLTIKNNTNTTSCIVGADIAESVSGKVVVDIHKTVEEGGRVVMMPAGPICLGPGETLEMRQGPGSYHVMIMGDRSAIEKITEDGVVEIKVLVEQQVDAPITGP”, the protein production was “failed”.
With “MKARAILLASVLLVGCQASKHDGTVEQRAQSLSAAGQGEAGKFTSQARWLDDGTFYAQDQDLWTSIGDELKMGIPDNPRIREQKQKYLRNKSYLHDVTLRAEPYMYWIAGQVKKRNMPMELVLLPIVESAFDPHATSGANAAGIWQIIPSTGRNYGLKQTRSYDARRDVVASTTAALDMMQRLNKMFDGDWLLTVAAYNSGEGRVMKAVKANRSRGKPTDFWSLSLPHETKIYVPKMLALSDILKNSKRYGVKLPTADESRALARVRLDSPVDISQLADMAGMPVSKLKTFNAGVKGSTLGASGPKYVMVPQKHAAQLRESLASGDIAAVQPTQLADNTPLTSRSYKVRSGDTISGIASRLGVTTRDLQQWNNLRGSGLKVGQNLVIGAGSSAQRLANNSDSITYRVRKGDSLSSIAKRHGVNIRDVMRWNSDTDNLRPGDQLTLFVKNNDRPES” the protein production was “failed”.
With “MKCIESLGKTVDEAVKKALSELKVTEDKVEIKVIDEGSKGLLNIIGKREAKVKVTLKTDYIDEVRTFLRKVFEDMNLVIEIKIKEIGNDLFVNLFGKNIGLLIGYRGETLDSLQYLVNLVANKNHADGKYKRVILDTENYRAKREETLKRLALKISKRVKEEKSPFKLEPMNPYERRVIHSALQNDKYVRTYSEGEEPHRRVVVELKKS” the protein production was “not failed”.
In the case of “MKCYLTGCIAGPLAFSEDLELIDYEPFPVDEIPGRLAESQMGGVSPEERIMLERLTPEYDEVVVEASPSPEYAGFRNLRFEVPSRAGIHLRENLEDILAEILDMPAGDFIHDALMSVARERLRESLRETDRFIIQSINALDELDEETGKLIERLREWYSLHFPELDGIKSHEQYVELIAEYGDRDQILKNFRMDVDESLGSDITSEDLHILRGLAESIRGLQRLREETERYIDIKMEKLAPNLRALAGSNVGARLIAHAGGLRELAMLPSSTIQVLGAEKALFRHLKSGAKPPKHGVIFQHPSIRSSPWWIRGKVARLLAGKIAIAVRKDVFSREFDPGIVESFNERFEAIKSNNPKPPARKKGFRKKRK”, the protein production was “failed”.
In the case of “MKDGEAATGQAASRPKRADARRNEKNLLDAAAAVFVRSGVEAPVRDIAAEAGVGTATIYRHFPTRADLIIGVYRHQVEACAEAGPALLASSPTPYAALAGWIDLFVDFLVTKHGLAAVLQSDSAGFETLHAYFLDRLVPVCTDLLAAATDSGEIDTDVPPLALMRGVGNLCIGAETPNPSYDARQLVRILIAGLRAAD”, the protein production was “not failed”.
For “MKDILWLMQKTLSVLLKNKKGLLIIISLPIIGTLISFSIYGNAGQGALNIGVINKENESIANDTVKFLEEINHVKVSKVKESEVEDKLTSKKLDGVITLQSGFSESVREGKPSNIEISSIKGDQVTAFIKSYLYNYIDNVAAISKVAGTDQSAFDTMYAGYQKSSFKVKTETLEDTSKNKDMTNQTMGYLIMFMLFSAVNLSGYILKEKENRTYFRLLSTPIDGKKFILSNVGVNMIILTVQIMITILFLTNVFHTNINMPFIVMVGVLMIFALIAIGMSLVIVAFSKNSSSANAMQNMVIVPTCLLAGCYFPYDIMPSAVQKVANFLPQRWLLDTVSKLQQGIPFSELYLNILILFAFAIAFFLIAIYKFGRNNDARNFV”, the protein production was “failed”.
In the case of “MKDPLLNSLIYVSRYYGLANSPEALVNGLPLSDGKLTPFLLPRAAERAGLVAKENRAELEKISSLILPAILVLKGGDSCVLNSINMETREAEVTTLESGMVPISIPLEDLLEQYTGRYFLVKKQFR”, the protein production was “not failed”.
With “MKDSDKEKENGKMGCWSIEHVEQYLGTDELPKNDLITYLQKNADAAFLRHWKLTGTNKSIRKNRNCSQLIAAYKDFCEHGTKSGLNQG” the protein production was “not failed”.
With “MKEDRVVFIFGPTAVGKSNILFHFPKNKAEIINVDSIQVYKEFNIASSKPSKNLMKHIKHHLVDFLDPEKDYTIGIFYEQALKIVKEIRQKKKIPIFVGGTAFYFKHLKDGFPSTPLVTSKIRIYVNNLLELKGKSYLLKELKNVDPIRFNMLNKNDIYRIKRSLEVYYQTGIPISQFQKKQSSEFKNIVIIGLKRSFEDLKTRISIRINEMLNSGLLSEIKGLFSKGYNENTPAFKGIGYNEFLLWKSRPCYGLNDIIGLINKNSFLYAKRQMTFFAKISDVLWLHPEDDLDNILNLIFKVDKEI” the protein production was “failed”.
For “MKEEIVNERQCETEDEKIDIQQLLFKYIIHWPWFVGAVLVCLIGAWIYLRMATPVYNISATVLIKDDKKGGNTGSMVGLEELGLSGLISSSQNIDNELEVLRSKTLVKEVINLLNLYVSYTDEDGFPSKNMYKTSPVLVSLTPQEAEKLTDPMVVEMALYGEGGLEVNVTVGDKEYQKHFEKLPAVFPMDEGTLAFFQSPDSLSLKKDTMEASSNIRHITAKIKSPMKVARAYCENLKIEPTSKTTSVAVISLKNSSLQRGQDFINQLLEMYNRNTNNDKNEIAQKTAEFIDERINIISKELGSTEANLENFKRNAGITDLTSEAQIALTGNAEYEKKRVENRTQISLIEDLRKYIRGNEYEVLPGNIGLQDPGLVATIERYNEMLVERKRLLRTSTENNPTIINLDTSIRAMKSNVQATLDGSLKGLLITKADLEREASRFSRRISDAPGQERQFVSIARQQEIKAGLYLMLLQKREENAIALAATANNAKIIDEAIADDIPVSPKRRMIYLIALVLGIGIPVGIIYLIGLTKFKLEGRADVEKLTTIPIVGDIPLTDEKNEKDGSIAVFENQNNLMSETFRNIRTNLQFMLQNDKKVILVTSTVSGEGKSFISANLAISLSLLGKKVVIVGLDIRKPGLNKVFRLSTKEKGITLYLANPETDLMSLVQPSDINQNLYILPGGTVPPNPTELLARDGLDKAIEILKKNFDYVILDTAPVGMVTDTLLIGRVADLSVYVCRADYTHKVEYTLINELAEEKKLPNLCTVINGVDLKRRKYGYYYGYGKYGKYYGYGKRYGYGYGYGQEKGAKS”, the protein production was “failed”.
For “MKEELKREYERIKDRISPEEFEELIEKKKEELGDIGFMDDLTIASTVVDDILKEKNTMLSEKPEHRMDTISKLEEGAETPVTGRVMKISSPRTFTTRKGREGKLANVIIADDTGELRAVFWTENIKLLKKFREGDVIRIKDVNIRGGFGGRKEAHLMPRSTVEVLDPEDYPEFPEYREEITPIGDLVEDDEVNVIARITGVSRVRTFERDGREGRFISLDIMDATGSTTYTLWNNDVNLVEELGLKEGDAVKILWAQPRRRDDKVTLTHTSLTRVVPGEYDVPEFREELVKIGDLHEMRNVTVMGLVTKVNDPVEFERNDGTTGSVKSIEIADDTGSARVTLWDEDTRIKINKGDIIRISGANVEFDDFNQSYRINTNFNTRITLNPESDGALLKVLEEYREQMRPMKISEILEMEDEGEEVDVVGRIFSLSDPREFEREDGTGIVRSMELADETGKIRISLWDEKAEKPMNIGDAVRIENARIRLGLYSVELSAGRTTRIVNPLPEDMEDLPSFEELEEMLYQTKKIADLEEDDRNIRIIARVVDLFEPREFQRGDGTPGLVRTAEFADDTGSIRASLWDDAAEKPLSIGDPVKIENPRVVFRDDMGGGRLETQHRKQFKD”, the protein production was “failed”.
For “MKEFRKILEDKAFFFTTLYILISFLVFKIFPDVFAVIVLMVFFTLLLDPVIRFLEKLKFGKYFSRVAALLLFFFVMVYSLYMIIPPVFNEFGSFIEFMTKVFESKIWKDYIKSPELMPVFDKIMNFLEPKLTDFLNYVFSLVTTNFVSVTTIIVFTLFGLGYTVFYIREIASFFVLIYPKSVRAEAREFFRDVYASMGRYIRVIFINAVIIGLSYWIVFEAFNLKYSAIISLWAFVTNFIPIVGVVLEYIPVLLFSLTLGVKGVLLIALFAILIHAVAFVVFIQLMKGLEKLNPVYIILSILFFGKLFGLFGSFVGVPLALFFKVFWRKFLRPLFEAG”, the protein production was “failed”.
With “MKEGIELNTKKRIIGLDFARALAMFGMLLVNFMVITGAEGNGPPFLITLMSLFEGRASALFVILAGIGISLMTRSSVARNEKIKISNSRKIIWKRALFLFILGLLLYVMEWTGDILHYYGVYLFVAALLITVRKKALLFLSIIILLLAQSLQLTFNAFEGWGGPTPFINYVDFWTVNGFLRNLFFNGYHPFSHRFSFFLIGMIIGRLDLHNKKIRDRLLLLGITFTILIELLSKGLTYYFIPHIGKAAATFLFNTGPVLPNVLYILSATGSAIAILILCLYITEKYENNWFVTSIIQTGQLTLTHYVSHVFIGIGTLILFNRMEHQTLLFVLLFATVFFIFSILFSVLWRKKFSRGPIEWIMRKLAS” the protein production was “not failed”.
For “MKEICMLLVAVILWGTAIAPTKWALESIQPFTLLFIRLFFAGGICMIFSFKELQKSVVHKKVPWKRMSLLAFTGVAGYFMFTSYGISLTSGLHVSIIDAALPLVTILFSALFLKEEIRLNYWIGIILGAIGVLFITIPSKSANQEVSLIGDILILLSTFLFAFYTVLLKRPKQEQYLSNEVFTTLTLIIGAVILLPFALVEIFYYGLPKVETWKTVLSVIYLVIGATILAYWFWNKALERVSASVSGLYLNALPLISIITSIILLNESLTWRVIMGASLVLIGVGWADKQKLCNLLKGNKVENRDC”, the protein production was “failed”.
With “MKEKISEKEYKALIRKIGKEHFDGEKEEYGDGTVGVWTYELRKYKLKPPVKVKYVTQEQFQEYKDSNNQRLIKIETTLAAQGEQIRIQVEQIKELQIEQKAQGETLKLILQTLQKMSDRLDKMEVKMDKMEEKMDKMEGKIDKIENRMDKMEVKMDKMEKRIDKLESKLEHHHHHH” the protein production was “failed”.
For “MKEKLWTTTFVVNMLLNFIFYLVFYLPTVVIGTMAMERYHASASIAGILSGIFIVGGFIARLWAGNNMKRLGAKKLLYIGTLIYFLLTFAYFFVHSVVLLLILRLVHGLGFGIAATASGTLAGAIVPSSRRGEGIGYYALSVTLSSAVGPFLSMFLYRTSGFYSLIWLSALLLFIALVGIFFIHVEKTTDSSNSVDNKVHKKFAWSNYFEKEALPISLIAFLIGISYSSILSFMDAYARNIHLSEAASFFFLVYAITVLLSRPITGRVFDGFGDNFVMYPTYLFFALGLLLIGFAHSGWMLLLAAIFIGLGYGSFSPFGQAIAIRNSEAHRLGITTSTFFGFMDMGVGFGPFILGMFMPLLGYRNLYFASAILALLIAVIYHFVHGRHAKREN”, the protein production was “failed”.
